Data taken from patent US20130071366A1 (CANCER RESEARCH TECHNOLOGY, published 2013).
Where a chain is given by its changes, count along the chain named. In names and notes the source's numbering stands. Where two headings read alike, the source gives them in different places.

B1: IGF2R domain 11, wild type, expressed in Pichia pastoris with C-terminal His6 tag (receptor)
chain: NEHDDCQVTNPSTGHLFDLSSLSGRAGFTAAYSEKGLVYMSICGENENCPPGVGACFGQTRISVGKANKRLRYVDQVLQLVYKDGSPCPSKSGLSYKSVISFVCRPEAGPTNRPMLISLDKQTCTLFFSWHTPLACEQATHHHHHH
notes: Alpha-factor signal is cleaved during secretion; soluble 17 kDa protein; also called WT; wild type domain 11
B2: IGF2R domain 11 Y1542A (receptor)
chain: B1 chain with Y32A
notes: Secreted from Pichia pastoris
B3: IGF2R domain 11 E1544V (receptor)
chain: B1 chain with E34V
notes: Secreted from Pichia pastoris
B4: IGF2R domain 11 E1544A (receptor)
chain: B1 chain with E34A
notes: Secreted from Pichia pastoris
B5: IGF2R domain 11 I1572A (null mutant) (receptor)
chain: B1 chain with I62A
notes: Secreted from Pichia pastoris
B6: IGF2R domain 11 E1544K (enhanced mutant) (receptor)
chain: B1 chain with E34K
notes: Secreted from Pichia pastoris
B7: Fc-tagged enhanced mutant IGF2R domain 11 (11^E1544K-Fc) (Fc fusion)
chain: NEHDDCQVTNPSTGHLFDLSSLSGRAGFTAAYSKKGLVYMSICGENENCPPGVGACFGQTRISVGKANKRLRYVDQVLQLVYKDGSPCPSKSGLSYKSVISFVCRPEAGPTNRPMLISLDKQTCTLFFSWHTPLACEQAT
modifications: N-glycosylated with Man3GlcNAc2 (Drosophila cells)
notes: Homodimer, secreted from Drosophila D.Mel-2 cells; not shown: human IgG1 Fc domain, amplified from IMAGE clone 4851063 (ATCC-6878978)

Assays:
[1] = molecular target: T1, Insulin-like Growth Factor II (IGF-II), recombinant human (human, UniProt P01344 25-91, biotinyl group (site not stated) when immobilised for SPR; not biotinylated as SPR analyte or in ITC); assay: SPR, steady-state KD relative to wild type domain 11
T1 construct: mature; Bought as Biotinyl-IGF-II from GroPep for immobilisation on streptavidin chips; also called IGF2; Biotinyl-IGF-II
T1 sequence (P01344 25-91): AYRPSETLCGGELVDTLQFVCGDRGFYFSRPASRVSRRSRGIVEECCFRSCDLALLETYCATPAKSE
Experimental: […]. Values are the mean±S.E.M. of three separate experiments.
(§1) Kinetic analysis by Surface Plasmon Resonance (SPR) was conducted on a BIAcore 3000 biosensor (BIAcore, Uppsala, Sweden) at 25° C. in HBS-EP (10 mM HEPES, pH 7.4, 150 mM NaCl, 3 mM EDTA, 0.005% surfactant P20) at a flow rate of 40 μl/min. […] Kinetic experiments consisted of a two minute injection of analyte followed by a 100s dissociation phase in running buffer, after which the binding surface was regenerated with a 2 minute injection of 2 M MgCl₂. A blank flow cell was used for in-line reference subtraction of changes due to differences in refractive index of running buffer versus sample and a buffer-only injection was used to subtract instrument noise and drift. Injections were performed in duplicate for each concentration and in a randomised order. Kinetic parameters were determined by global fitting of sensorgrams to a two-state (conformational change) binding model using BIAevaluation software version 4.0.1. In all cases the minor component made an insignificant contribution to the overall affinity and as such only the kinetic parameters of the major binding component were used. For each interaction the dissociation affinity constant (KD) was also calculated by fitting of the response of each concentration at equilibrium to a steady-state affinity model using BIAevaluation. In order to investigate the influence of ionic strength, kinetic experiments were conducted in HBS-EP running buffers containing the desired NaCl concentration. In each case, analyte samples were made up in the appropriate running buffer prior to injection.
Following purification, the binding of each mutant construct to IGF2 was assessed by SPR and compared to the wild type domain 11.

[2] = molecular target: T1, Insulin-like Growth Factor II (IGF-II), …; assay: as above; remark: listed apart in the source
[3] = molecular target: T1, Insulin-like Growth Factor II (IGF-II), …; assay: as above; remark: listed apart in the source
Experimental: as §1, with “BIAevaluation.” for “BIAevaluation. In order to investigate the influence of ionic strength, kinetic experiments were conducted in HBS-EP running buffers containing the desired NaCl concentration. In each case, analyte samples were made up in the appropriate running buffer prior to injection.”

[4] = molecular target: T1, Insulin-like Growth Factor II (IGF-II), …; assay: ITC
Experimental: Calorimetric measurements were performed using a VP-ITC microcalorimeter (MicroCal). All solutions were thoroughly degassed before use by stirring under vacuum. […] The sample cell contained either wild type domain 11 (7 uM) or the E1544A mutant (8 μM), also in HBS-E buffer. To correct for the heat effects of dilution and mixing, reaction heats obtained from a control experiment, in which IGF2 was injected into HBS-E, were subtracted. calorimetric data were analysed using MicroCal ORIGIN software (version 5.0) supplied with the instrument. Thermodynamic parameters were derived by fitting the binding isotherms to a single-site binding model. Values for dissociation affinity constants (KD) were determined from duplicate experiments.
In order to validate the SPR sensorgram data, ITC was used to assess the binding affinity between domain 11 and IGF-II. The affinity of the E1544A mutant was also assessed by ITC in order to confirm whether use of a second technique agreed as to the apparent increase in affinity (FIG. 6 and Table 6). Titrations were performed using […] injections of 40 μM IGF-II (after an initial 7.5 μl injection) into the reaction cell containing wild type domain 11 or the E1544A mutant. […] The two fold differences may be simply accounted for by the fidelity of both techniques.

[5] = molecular target: T1, Insulin-like Growth Factor II (IGF-II), …; assay: SPR, biotinylated IGF-II on a streptavidin chip, domain 11 protein injected as analyte at 16384 to 32 nM
Experimental: The polymorphism G1619R (l) has an apparent wild type interaction and the E1544A (d) mutation has a modest positive affect on IGF-II binding.
as §1, with “In all cases the minor component made an insignificant contribution to the overall affinity and as such only the kinetic parameters of the major binding component were used.” left out, “In order to investigate the influence of ionic strength, kinetic experiments were conducted in HBS-EP running buffers containing the desired NaCl concentration. In each case, analyte samples were made up in the appropriate running buffer prior to injection.” left out
Following purification, the binding of each mutant construct to IGF2 was assessed by SPR and compared to the wild type domain 11. […]

[6] = molecular target: T1, Insulin-like Growth Factor II (IGF-II), …; assay: SPR, biotinyl-IGF-II immobilised, bivalent analyte model
Description: (§2) The affinity of versions of Fc-tagged domain 11 fusion proteins, and domain 11 constructs, for IGF-II were compared using surface plasmon resonance (BIAcore 3000). Attempts were made to immobilize Fc-tagged domain 11 proteins upon a sensor chip surface (CM5 and CM5-proteinA) but we encountered similar problems as described above with immobilised monomeric domain 11. Instead, immobilisation of biotinylated IGF-I and IGF-II on separate flow cells of a streptavidin coated sensor chip (BIAcore) generated reproducible sensorgram profiles when Fc-tagged and untagged domain 11 proteins were passed over the surface as analytes. The Fc-tagged domain 11 kinetic data performed in triplicate generated sensorgrams that were analyzed using a bivalent analyte model. […] Both Fc-tagged proteins appeared to have reduced off-rates compared to the untagged monomers.

[7] = molecular target: T1, Insulin-like Growth Factor II (IGF-II), …; assay: SPR, biotinyl-IGF-II immobilised
Description: as §2

| Relative Affinity [1] | Relative Affinity [2] | Relative Affinity [3] | further results | Binder |
| --- | --- | --- | --- | --- |
| 1 fold vs wild type domain 11 | 1 fold vs wild type domain 11 | 1 fold vs wild type domain 11 | – | B1 |
| 0.16 fold vs wild type domain 11 | – | – | – | B2 |
| – | 1.96 fold vs wild type domain 11 | 1.96 fold vs wild type domain 11 | – | B3 |
| 2.79 fold vs wild type domain 11 | 2.79 fold vs wild type domain 11 | 2.79 fold vs wild type domain 11 | relative affinity increase over wild type by ITC [4]: ~2 fold vs wild type domain 11 | B4 |
| – | – | – | binding result [5]: no binding (tested: 16384 nM) | B5 |
| – | 6.12 fold vs wild type domain 11 | 6.12 fold vs wild type domain 11 | – | B6 |
| – | – | – | molar affinity relative to 11-Fc [6]: ~2 fold vs 11-Fc; RU response relative to 11-Fc at equal concentrations [7]: ~2 fold vs 11-Fc | B7 |
